The source of these data is paper PMC3846833.

This experiment deals with recombinant myostatin (R&D Systems) (UniProt O14793). Nature of the experiment: SPR; Biacore 3000, CM5 chip, about 2000 RU of ligand (ActRIIB-Fc or myostatin) amine-coupled by EDC/NHS; analyte 6.25-100 nM in HBS-EP (0.01 M HEPES pH 7.4, 0.15 M NaCl, 3 mM EDTA, 0.005% P20); 21°C, 30 µL/min; association 180 s, dissociation 300 s. Background: SPR reads the build-up and loss of mass on a sensor chip optically.
Chain of UniProt O14793 (O14793 267-375): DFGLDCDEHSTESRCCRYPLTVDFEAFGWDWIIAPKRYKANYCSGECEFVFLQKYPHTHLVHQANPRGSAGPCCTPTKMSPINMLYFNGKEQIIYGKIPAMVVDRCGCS

As for “recombinant putative mature sheep myostatin splice variant (rMSV, aa 275-321) (domain or fragment)”, the Kd came to 0.0979 nM, the koff was 4.32e-06 s⁻¹ and the kon was determined as 44100 M⁻¹ s⁻¹.

For orientation: Kd means a measure of binding affinity in units of concentration. By koff is commonly meant a measure of how fast the partners let go of each other. The term kon denotes the rate constant with which the complex forms.
